Measured values taken from patent US20130209439A1, “INHIBITORS OF PDE4 BINDING TO HSP20” (THE UNIVERSITY COURT OF THE UNIVERSITY OF GLASGOW, priority 2010, published 2013).
Where no end group is shown, it is not given here.

Target: T1, His-HSP20 / GST-PDE4D5 (Homo sapiens, UniProt O14558)
T1 construct: made in house; host or cells: E. coli (BL21 for His-Hsp20)
T1 sequence (O14558 1-160): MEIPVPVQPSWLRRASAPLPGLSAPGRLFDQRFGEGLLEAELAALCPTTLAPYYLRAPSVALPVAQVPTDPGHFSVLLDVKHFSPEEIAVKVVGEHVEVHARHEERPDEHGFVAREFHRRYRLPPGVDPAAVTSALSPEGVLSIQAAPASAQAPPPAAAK
Assay: Hsp20/PDE4D5 ELISA assay with purified proteins
Assay type: binding
Conditions: increasing amounts of peptide
Text: FIG. 6. Peptide disruption of the PDE4D-HSP20 complex promotes PKA phosphorylation on Ser16. A, Upper panel. HEK293 cells were transfected with HSP20 and PDE4D5. Immunoprecipitation of HSP20 done in the presence increasing concentrations of Peptide 906 (SEQ ID NO: 36) and Peptide control (SEQ ID NO: 37) were probed for PDE4D5. Lower panel. Densitometric analysis of amount of PDE4D5 in HSP20 immunoprecipitates normalised to expression level. Data representative of n=3. B, Purified preparations of HSP20-His and PDE4D5-GST were subject to an ELISA assay containing increasing amounts of ‘Peptide 906’ and ‘peptide control’. C, Upper panel, HSP20 was transfected into HEK293 cells and treated with ‘Peptide 906’ for indicated times. Cellular lysates were blotted for HSP20 and phospho-HSP20. Middle panel, HSP20 was transfected into HEK293 cells and treated with ‘Peptide 906’ or ‘peptide control’ for indicated times. Cellular lysates were blotted for HSP20 and phospho-HSP20. Lower panel, Densitometric analysis of phosphorylation of HSP20 normalised to expression level (n=3).
His-HSP20 and GST-PDE4D5 were purified as previously described. […] Plates were read as soon as possible using the luminescence program on a Packard Fusion plate reader (1 s reading per well). […]

Substance: Peptide 906: stearoylated, cell-permeable disrupter peptide of PDE4D5 residues E468-K492 (SEQ ID NO: 36) (ENHHLAVGFKLLQEENSDIFQNLTK; also: stearoylated, site not given here)
- association between PDE4D5 and HSP20 in ELISA with purified proteins: attenuated the association between PDE4D5 and HSP20
